The labels stand for the following.
T1: CARM1 fused to Gal4AD (pGAD10.CARM1) (mouse, UniProt Q4AE70 3-651 (rat entry))
T1 construct: Yeast two-hybrid prey; also called CARM1-AD hybrid protein; CARM1(3-608)
T1 sequence: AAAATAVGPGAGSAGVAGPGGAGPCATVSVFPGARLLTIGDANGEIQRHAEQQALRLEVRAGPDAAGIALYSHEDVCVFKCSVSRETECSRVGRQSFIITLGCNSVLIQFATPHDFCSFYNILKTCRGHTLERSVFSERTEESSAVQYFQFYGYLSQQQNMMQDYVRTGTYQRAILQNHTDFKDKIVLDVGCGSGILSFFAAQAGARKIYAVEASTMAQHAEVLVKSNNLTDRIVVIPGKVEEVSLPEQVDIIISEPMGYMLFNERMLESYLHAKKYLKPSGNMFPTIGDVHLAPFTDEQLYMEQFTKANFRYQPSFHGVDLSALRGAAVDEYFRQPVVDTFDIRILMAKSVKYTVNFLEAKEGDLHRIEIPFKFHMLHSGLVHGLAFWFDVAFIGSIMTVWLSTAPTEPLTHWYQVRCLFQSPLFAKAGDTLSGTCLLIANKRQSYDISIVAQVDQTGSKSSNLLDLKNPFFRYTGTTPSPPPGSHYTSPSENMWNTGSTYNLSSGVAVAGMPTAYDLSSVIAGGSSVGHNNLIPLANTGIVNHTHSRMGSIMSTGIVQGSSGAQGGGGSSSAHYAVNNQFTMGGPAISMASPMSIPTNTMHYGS

B1: Gal4 DBD-GRIP1c C-terminal fragment starting at amino acid 1306 (GRIP1c bisected between 1305 and 1306) (other, UniProt P04386 1-147, looked up)
chain: MKLLSSIEQACDICRLKKLKCSKEKPKCAKCLKNNWECRYSPKTKRSPLTRAHLTEVESRLERLEQLFLLIFPREDLDMILKMDSLQDIKALLTGLFVQDNVNKDAVTDRLASVETDMPLTLRQHRISATSSSEESSNKGQRQLTVSSQQPDPGFTGATTPQSPLMSPRMAHTQSPMMQQSQANPAYQPTSDMNGWAQGSMGGNSMFSQQSPPHFGQQANTSMYSNNMNISVSMATNTGGLSSMNQMTGQMSMTSVTSVPTSGLPSMGPEQVNDPALRGGNLFPNQLPGMDMIKQEGDASRKYC
B2: GST-CARM1 (enzyme)
chain: T1 sequence
notes: also called GST fusion protein of CARM1; glutathione S-transferase-CARM1; not shown: glutathione S-transferase (GST) as encoded by vector pGEX-4T1 (Pharmacia)
B3: GRIP1 amino acids 730-1121, translated in vitro (other, UniProt Q61026 730-1121, looked up)
chain: VKQEPASPKKKENALLRYLLDKDDTKDIGLPEITPKLERLDSKTDPASNTKLIAMKTVKEEVSFEPSDQPGSELDNLEEILDDLQNSQLPQLFPDTRPGAPTGSVDKQAIINDLMQLTADSSPVPPAGAQKAALRMSQSTFNNPRPGQLGRLLPNQNLPLDITLQSPTGAGPFPPIRNSSPYSVIPQPGMMGNQGMLGSQGNLGNNSTGMIGSSTSRPSMPSGEWAPQSPAVRVTCAATTGAMNRPVQGGMIRNPTASIPMRANSQPGQRQMLQSQVMNIGPSELEMNMGGPQYNQQQAPPNQTAPWPESILPIDQASFASQNRQPFGSSPDDLLCPHPAAESPSDEGALLDQLYLALRNFDGLEEIDRALGIPELVSQSQAVDAEQFSSQE
notes: range 730-1121; also called GRIP1 (730-1121); not shown: translation start and HA tag encoded by pSG5.HA
B4: Gal4 DBD-GRIP1 fragment 1211-1350 (other, UniProt P04386 1-147, looked up)
chain: MKLLSSIEQACDICRLKKLKCSKEKPKCAKCLKNNWECRYSPKTKRSPLTRAHLTEVESRLERLEQLFLLIFPREDLDMILKMDSLQDIKALLTGLFVQDNVNKDAVTDRLASVETDMPLTLRQHRISATSSSEESSNKGQRQLTVSSSVSNVNLTLRPGVPTQAPINAQMLAQRQREILNQHLRQRQMQQQVQQRTLMMRGQGLNVTPSMVAPAGLPAAMSNPRIPQANAQQFPFPPNYGISQQPDPGFTGATTPQSPLMSPRMAHTQSPMMQQSQANPAYQPTSD
B5: Gal4 DBD-GRIP1c (GRIP1 1122-1462) (other, UniProt P04386 1-147, looked up)
chain: MKLLSSIEQACDICRLKKLKCSKEKPKCAKCLKNNWECRYSPKTKRSPLTRAHLTEVESRLERLEQLFLLIFPREDLDMILKMDSLQDIKALLTGLFVQDNVNKDAVTDRLASVETDMPLTLRQHRISATSSSEESSNKGQRQLTVSSSIMLEQKPPVFPQQYASQAQMAQGGYNPMQDPNFHTMGQRPNYTTLRMQPRPGLRPTGIVQNQPNQLRLQLQHRLQAQQNRQPLMNQISSVSNVNLTLRPGVPTQAPINAQMLAQRQREILNQHLRQRQMQQQVQQRTLMMRGQGLNVTPSMVAPAGLPAAMSNPRIPQANAQQFPFPPNYGISQQPDPGFTGATTPQSPLMSPRMAHTQSPMMQQSQANPAYQPTSDMNGWAQGSMGGNSMFSQQSPPHFGQQANTSMYSNNMNISVSMATNTGGLSSMNQMTGQMSMTSVTSVPTSGLPSMGPEQVNDPALRGGNLFPNQLPGMDMIKQEGDASRKYC
notes: One entry covers both the yeast bait (pGBT9) and the mammalian vector (pM) fusion; also called pGBT9.GRIP1c; pM.GRIP1c
B6: Gal4 DBD-GRIP1c N-terminal fragment ending at amino acid 1305 (GRIP1c bisected between 1305 and 1306) (other, UniProt P04386 1-147, looked up)
chain: MKLLSSIEQACDICRLKKLKCSKEKPKCAKCLKNNWECRYSPKTKRSPLTRAHLTEVESRLERLEQLFLLIFPREDLDMILKMDSLQDIKALLTGLFVQDNVNKDAVTDRLASVETDMPLTLRQHRISATSSSEESSNKGQRQLTVSSSIMLEQKPPVFPQQYASQAQMAQGGYNPMQDPNFHTMGQRPNYTTLRMQPRPGLRPTGIVQNQPNQLRLQLQHRLQAQQNRQPLMNQISSVSNVNLTLRPGVPTQAPINAQMLAQRQREILNQHLRQRQMQQQVQQRTLMMRGQGLNVTPSMVAPAGLPAAMSNPRIPQANAQQFPFPPNYGI
B7: Gal4 DBD-GRIP1 amino acids 1121-1210 (N-terminal fragment of GRIP1c bisected between 1210 and 1211) (other, UniProt P04386 1-147, looked up)
chain: MKLLSSIEQACDICRLKKLKCSKEKPKCAKCLKNNWECRYSPKTKRSPLTRAHLTEVESRLERLEQLFLLIFPREDLDMILKMDSLQDIKALLTGLFVQDNVNKDAVTDRLASVETDMPLTLRQHRISATSSSEESSNKGQRQLTVSESSIMLEQKPPVFPQQYASQAQMAQGGYNPMQDPNFHTMGQRPNYTTLRMQPRPGLRPTGIVQNQPNQLRLQLQHRLQAQQNRQPLMNQI
notes: also called the N-terminal fragment
B8: Gal4 DBD-GRIP1 1211-1462 (C-terminal fragment of GRIP1c bisected between 1210 and 1211) (other, UniProt P04386 1-147, looked up)
chain: MKLLSSIEQACDICRLKKLKCSKEKPKCAKCLKNNWECRYSPKTKRSPLTRAHLTEVESRLERLEQLFLLIFPREDLDMILKMDSLQDIKALLTGLFVQDNVNKDAVTDRLASVETDMPLTLRQHRISATSSSEESSNKGQRQLTVSSSVSNVNLTLRPGVPTQAPINAQMLAQRQREILNQHLRQRQMQQQVQQRTLMMRGQGLNVTPSMVAPAGLPAAMSNPRIPQANAQQFPFPPNYGISQQPDPGFTGATTPQSPLMSPRMAHTQSPMMQQSQANPAYQPTSDMNGWAQGSMGGNSMFSQQSPPHFGQQANTSMYSNNMNISVSMATNTGGLSSMNQMTGQMSMTSVTSVPTSGLPSMGPEQVNDPALRGGNLFPNQLPGMDMIKQEGDASRKYC
notes: also called the C-terminal fragment

The target of experiment [1] is T1, CARM1 fused to Gal4AD (pGAD10.CARM1). Description: yeast two-hybrid, β-galactosidase activity. As to the method: (§1) Sub-fragments of the GRIP1 C-terminal domain (GRIP lc), fused with the Gal4 DBD, were tested in the yeast two-hybrid system as described previously (Ding, X. F. et al. (1998) Mol. Endocrinol. 12:302) for binding to CARM1 or to α-actinin, fused to Gal4AD. β-galactosidase (β-gal) activity indicates interaction between the two hybrid proteins.

Experiment [2] has as its target T2, GRIP1 amino acids 5-765, translated in vitro (UniProt Q61026 5-765).
T2 construct: range 5-765; also called GRIP1 (5-765); not shown: translation start and HA tag encoded by pSG5.HA
Description: GST pull-down on glutathione agarose beads, labeled in vitro translated fragment, SDS-PAGE. As to the method:
(§2) The binding of GRIP1c to CARM1 observed in the yeast two-hybrid system was confirmed in vitro, by incubating glutathione S-transferase (GST) fusion proteins attached to glutathione agarose beads with labeled proteins or protein fragments translated in vitro. […] Conversely, GST-GRIP1c bound CARM1 and the VLD to AAA mutant of CARM1 (FIG. 3B). GST-CARM1 not only bound GRIP1 but also the other two members of the p160 coactivator family, SRC-1a and ACTR (FIG. 3A). […] GST fusion proteins of CARM1 or the indicated GRIP1 fragments produced in E. coli strain BL21 (Stratagene), were bound to glutathione-agarose beads and incubated with labeled full length CARM1 or p160 coactivators or GRIP1 fragments translated in vitro from vector pSG5.HA-CARM1, pSG5.HA-GRIP1, pSG5.HA-SRC-1a (Chen, D. et al. 1999), or pCMX.ACTR (Chen et al. 1997); bound labeled proteins were eluted and analyzed by SDS polyacrylamide gel electrophoresis as described previously (Hong et al. 1996). A mutant form of CARM1 with the triple amino acid substitution (VLD changed to AAA) shown in FIG. 1 still retains the ability to bind to the C-terminal fragment of GRIP1.

The target in the experiment “GST-CARM1” is B2. The description is as above. As to the method: as §2
Experiment [3] has as its target T1, CARM1 fused to Gal4AD (pGAD10.CARM1). Description: yeast two-hybrid, β-galactosidase activity (figure legend). As to the method:
as §1

Consider 8 molecules from patent US20100092982A1 (University of California, published 2010).

T2 sequence (Q61026 5-765): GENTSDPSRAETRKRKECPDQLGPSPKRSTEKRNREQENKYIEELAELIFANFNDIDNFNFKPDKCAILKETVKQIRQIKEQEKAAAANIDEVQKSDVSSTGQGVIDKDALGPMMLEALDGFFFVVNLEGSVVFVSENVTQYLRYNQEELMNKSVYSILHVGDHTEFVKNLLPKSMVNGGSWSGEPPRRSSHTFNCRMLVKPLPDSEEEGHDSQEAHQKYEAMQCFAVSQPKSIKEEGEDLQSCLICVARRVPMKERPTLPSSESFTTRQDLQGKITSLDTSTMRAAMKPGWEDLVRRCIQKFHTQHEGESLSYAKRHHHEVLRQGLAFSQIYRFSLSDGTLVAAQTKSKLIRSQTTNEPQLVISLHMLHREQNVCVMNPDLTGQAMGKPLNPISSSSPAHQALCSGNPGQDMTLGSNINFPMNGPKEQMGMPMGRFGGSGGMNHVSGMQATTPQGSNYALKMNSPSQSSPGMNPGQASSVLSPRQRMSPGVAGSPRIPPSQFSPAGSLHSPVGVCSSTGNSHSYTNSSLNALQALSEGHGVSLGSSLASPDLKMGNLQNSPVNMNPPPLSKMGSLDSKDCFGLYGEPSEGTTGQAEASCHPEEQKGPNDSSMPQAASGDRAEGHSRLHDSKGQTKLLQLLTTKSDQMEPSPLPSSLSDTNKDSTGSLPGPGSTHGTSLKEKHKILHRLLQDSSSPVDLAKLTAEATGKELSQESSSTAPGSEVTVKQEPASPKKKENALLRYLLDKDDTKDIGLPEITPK

For the molecule B1, the binding result in experiment [1] is recorded as “no binding”.
Take B2: the binding result in experiment [2] is “no binding”.
As to B3, the binding result with GST-CARM1 was “no binding”.
Consider B4, for which the binding result in experiment [1] was “binds”.
Take B5: the binding result in experiment [3] was “binds”.
In the case of B6, the binding result in experiment [1] was “no binding”.
The same measure, in the same setting: to B7 belongs “no binding”; to B8, “binds”.
